Assay results: patent US20080274095A1, “Biocides” (priority 2004, published 2008)

B1: LPS-binding protein (protein, UniProt P18428 26-481, looked up)
Lipopolysaccharide-binding …: ANPGLVARITDKGLQYAAQEGLLALQSELLRITLPDFTGDLRIPHVGRGRYEFHSLNIHSCELLHSALRPVPGQGLSLSISDSSIRVQGRWKVRKSFFKLQGSFDVSVKGISISVNLLLGSESSGRPTVTASSCSSDIADVEVDMSGDLGWLLNLFHNQIESKFQKVLESRICEMIQKSVSSDLQPYLQTLPVTTEIDSFADIDYSLVEAPRATAQMLEVMFKGEIFHRNHRSPVTLLAAVMSLPEEHNKMVYFAISDYVFNTASLVYHEEGYLNFSITDDMIPPDSNIRLTTKSFRPFVPRLARLYPNMNLELQGSVPSAPLLNFSPGNLSVDPYMEIDAFVLLPSSSKEPVFRLSVATNVSATLTFNTSKITGFLKPGKVKVELKESKVGLFNAELLEALLNYYILNTFYPKFNDKLAEGFPLPLLKRVQLYDLGLQIHKDFLFLGANVQYMRV
B2: Lactoferrin (protein, UniProt P02788 20-710, looked up)
Lactotransferrin: GRRRSVQWCAVSQPEATKCFQWQRNMRKVRGPPVSCIKRDSPIQCIQAIAENRADAVTLDGGFIYEAGLAPYKLRPVAAEVYGTERQPRTHYYAVAVVKKGGSFQLNELQGLKSCHTGLRRTAGWNVPIGTLRPFLNWTGPPEPIEAAVARFFSASCVPGADKGQFPNLCRLCAGTGENKCAFSSQEPYFSYSGAFKCLRDGAGDVAFIRESTVFEDLSDEAERDEYELLCPDNTRKPVDKFKDCHLARVPSHAVVARSVNGKEDAIWNLLRQAQEKFGKDKSPKFQLFGSPSGQKDLLFKDSAIGFSRVPPRIDSGLYLGSGYFTAIQNLRKSEEEVAARRARVVWCAVGEQELRKCNQWSGLSEGSVTCSSASTTEDCIALVLKGEADAMSLDGGYVYTAGKCGLVPVLAENYKSQQSSDPDPNCVDRPVEGYLAVAVVRRSDTSLTWNSVKGKKSCHTAVDRTAGWNIPMGLLFNQTGSCKFDEYFSQSCAPGSDPRSNLCALCIGDEQGENKCVPNSNERYYGYTGAFRCLAENAGDVAFVKDVTVLQNTDGNNNEAWAKDLKLADFALLCLDGKRKPVTEARSCHLAMAPNHAVVSRMDKVERLKQVLLHQQAKFGRNGSDCPDKFCLFQSETKNLLFNDNTECLARLHGKTTYEKYLGPQYVAGITNLKKCSTSPLLEACEFLRK
notes: Sigma

Columns and labels:
[1] = Tobias et al. 1995; read-out: dissociation constant KD for LPS binding; cited from earlier work
Caco-2 Host Cells = assay: Host cell toxicity assay by LDH release; format: cell-based, human
Description: Host cell toxicity assay was performed by measuring the release of lactate dehydrogenase (LDH) in the medium using a CYTOTOX 96 Non-Radioactive Cytotoxicity Assay kit (Promega, Madison, Wis.). Toxicity was therefore classified as non toxic 0-5% LDH release and mild toxicity 5-10% LDH release (ref).

Row | Molecule | Kd [1] | % LDH release (Caco-2 Host Cells; 10 μg/ml) | % LDH release (Caco-2 Host Cells; 100 μg/ml)
1 | B1 | 3.5 nM |  | 
2 | B2 |  | 5.9 ± 1.2 % | 5.8 ± 3.1%
